Target: full-length NiVM G on transfected cells (Nipah virus, Malaysia strain (NiVM), UniProt Q9IH62)
Assay: flow cytometry on cells

B1: mAb S1E2 (antibody, V domains shown)
VH: QMQLQESGPGLVKPSQSLSLTCSVTGYSITSGYYWNWIRQFSGNKLEWMGYINHDGSKNYNPSLKNRISITRDTSKNQFFLKLNSVTTEDTATYYCARDYGSYYYPMDYWGQGTSVTVSS
VL: EIVLTQSPPIMSASPGEKVTITCSASSSVTFMHWFQQKPGTSPKLWIFSTSNLASGVPARFSGSGSGTSYSLTISRMEAEDAATYYCQQRSSYPFTFGSGTKLEIK
binding result: binds

B2: mAb S2B10 (antibody, V domains shown)
VH: QMQLQESGPGLVKPSQSLSLTCTVTGYSITSDYAWNWIRQFPRNKLEWMGFITYSGSTSYNPSLKSRISLTRDTSKNQFFLQLSSVTTEDTATYYCARSGANWDWFAYWGQGTLVTVSA
VL: DIQMTQSPASLAVSLGQRATISCRASESVDNYGNSFMHWYQQKPGQPPKLLIYRASKLESGIPARFSGSGSRTDFTLTINPVEADDVATYHCQQSNEDPWTFGGGTKLEIK
binding result: binds

B3: mAb LN1F9 (antibody, V domains shown)
VH: EVKLVESGGGLVKPGGSLKLSCAASGFSFRNYAMSWVRQSPEKRLEWVAEVSSGGGYTYYPDTVTGRFTISRDNAKNILYLEMSSLRSEDTAMYYCTRDPDSSGYLAWFAYWGQGTLVTVSA
VL: DILLTQSPASLSASVGETVTITCRASENINSYLAWYQQKQGKSPQLLVYNAKTLAEGVPSRFSGSGSDTQFSLKINTLQPEDFGTYYCQHHSGTPYTFGGGTKLEIK
binding result: binds

B4: mAb LN3D3 (antibody, V domains shown)
VH: EVKLEESGPELVKPGASVKMSCKASGYTFTNYVMHWVKQKPGQGLEWIGYVNPYNDGTQYNEKFRDKATLTSDKSSSTVYMELNSLTSEDSAVYYCTRGDYPYWVFEVWGAGTTVTVSS
VL: EIQMTQSPATLSVTPGDSVSLSCRASQSISNNLHWYQQKSHESPRLLIKYASQSISGIPSRFSGSGSGTDFTLSINNLETEDFGMYFCQHSDSWPFTFGSGTKLEIK
binding result: binds

Source: publication doi:10.1101/2025.02.16.638571 (bioRxiv, 2025)
